Assay: soluble on expression in E. coli; label from the status in PepcDB or PDB records

Sequence	soluble on expression in E. coli
MDTPFIVFWELTRACMLACKHCRAKAIRKRHPDELTTEECFNVIDQLSEFNPKPLLIITGGDPLMRDDVTEIISHAAEKGFRVAIAFSGTEKATEEKLRELKEAGVARVAVSIDGSDEEKHDSFRGVRGTFRMSMMAIENAKKAGLPFQINTTVTRENIEDLPNIARLCLELGAVMWDVFFVVPTGRAKAEMMPTPQQFE	not soluble
MKIIDFRLRPPAMGFLNARIYTRPDIRNRFTRQLGFEPAPSAEEKSLELMFEEMAAAGIEQGVCVGRNSSVLGSVSNADVAAVAKAYPDKFHPVGSIEAATRKEAMAQMQEILDLGIRIVNLEPGVWATPMHVDDRRLYPLYAFCEDNGIPVIMMTGGNAGPDITYTNPEHIDRVLGDFPDLTVVSSHGNWPWVQEIIHVAFRRPNLYLSPDMYLYNLPGHADFIQAANSFLADRMLFGTAYPMCPLKEYTEWFLTLPIKPDAMEKILHGNAERLLAQAGRLEHHHHHH	not soluble
MIDCAIIGGGPAGLSAGLYATRGGVKNAVLFEKGMPGGQITGSSEIENYPGVKEVVSGLDFMQPWQEQCFRFGLKHEMTAVQRVSKKDSHFVILAEDGKTFEAKSVIIATGGSPKRTGIKGESEYWGKGVSTCATCDGFFYKNKEVAVLGGGDTAVEEAIYLANICKKVYLIHRRDGFRCAPITLEHAKNNDKIEFLTPYVVEEIKGDASGVSSLSIKNTATNEKRELVVPGFFIFVGYDVNNAVLKQEDNSMLCKCDEYGSIVVDFSMKTNVQGLFAAGDIRIFAPKQVVCAASDGATAALSVISYLEHH	soluble
YHTEKTLPERTNEAAMSAAVVRGKLVWEQNNCVGCHTLLGEGAYFAPELGNVVGRRGGEEGFNTFLQAWMNIQPLNVPGRRAMPQFHLSEGQVDDLAEFLKWSSKIDTNQWPPNKEG	not soluble
MNIPTTTTKGEQAKSQLIAAALAQFGEYGLHATTRDIAALAGQNIAAITYYFGSKEDLYLACAQWIADFLGEKFRPHAEKAERLFSQPAPDRDAIRELILLACKNMIMLLTQEDTVNLSKFISREQLSPTSAYQLVHEQVIDPLHTHLTRLVAAYTGCDANDTRMILHTHALLGEVLAFRLGKETILLRTGWPQFDEEKAELIYQTVTCHIDLILHGLTQRSLD	soluble
MPPVYSQPELSISIAGLRLQRPVGNASGILGWEPREARLVEEGGGGFFVAKSVTYQPRKGYPQPHLYPVAGGIVNAVGLANPGFREASKMLAQTVEEASIPVIASIAGGAPGEWVEMASTLEEAGVSAVELNLSCPHFAGGGLELGQDPAAVASVVSAVASTLRIPVIAKLGYSDRLVDAASKALEAGARGLTLINSMRAMKIDVYAKKPVLGNRVGGLSGKPIHPIAVRAVYEVYGETRADIFAAGGVESWEDAVEFYLAGAKAVQVGAAFITIGPHVLRSIVEGVRRYLWVEGFRSLQDIVGYAHRA	soluble
GPGSMNVDDFRTVIPSPVYVATRGERSGINVAVRALAPVTDVVFDMEEQFAVVCQRRRFSTYAISSWMESLDVPSIPGAAVPLVSVEPQGFSSLGFALSALQFLSSSLHVIAGYHRAPVVDIFDLENVDEETSEPQQRFNLTDVKENGNVEDGSSAYANDVMPMDRYVSLGALSSGLSVWLDSRSGKAEACTGVLTRQYTIGAHNRHTGRRDPLACVTSLCQGNPANILLGTEAGALQLWDVRCARECVAQHMTSASICRLHPSYSYPLRNVVWLNTLAGCVEAVSVGQSDMELLARRLCPDFQRSSSTFHLPPPRLSFMESSGVVACPHISSGKLLLYDGSSLVKQPNNSRTQLSSYNRGVDGKDNEYENGHCSNFGGFLREASSSSEESGEREIPLLNALPSEANALVTACTVWSNRDMFVLGDETGRVQLL	not soluble
PDATSKKVVPLGVEIYEINGPFFFGVADRLKGVLDVIEETPKVFILRMRRVPVIDATGMHALWEFQESCEKRGTILLLSGVSDRLYGALNRFGFIEALGEERVFDHIDKALAYAKLLVETAEERGRES	soluble
MTKKALSAVILAAGKGTRMYSDLPKVLHTIAGKPMVKHVIDTAHQLGSENIHLIYGHGGDLMRTHLANEQVNWVLQTEQLGTAHAVQQAAPFFKDNENIVVLYGDAPLITKETLEKLIEAKPENGIALLTVNLDNPTGYGRIIRENGNVVAIVEQKDANAEQLNIKEVNTGVMVSDGASFKKWLARVGNNNAQGEYYLTDLIALANQDNCQVVAVQATDVMEVEGANNRLQLAALERYFQNKQASKLLLEGVMIYDPARFDLRGTLEHGKDVEIDVNVIIEGNVKLGDRVKIGTGCVLKNVVIGNDVEIKPYSVLEDSIVGEKAAIGPFSRLRPGAELAAETHVGNFVEIKKSTVGKGSKVNHLTYVGDSEIGSNCNIGAGVITCNYDGANKFKTIIGDDVFVGSDTQLVAPVKVANGATIGAGTTITRDVGENELVITRVAQRHIQGWQRPIKKK	soluble

— the DeepSol protein solubility set
